T1: PRLR-expressing cells (T47D) (Homo sapiens, UniProt P16471)
T1 construct: a native PRLR expressing cell line (T47D); endogenous in cells; host or cells: T47D
T1 sequence (P16471 25-622): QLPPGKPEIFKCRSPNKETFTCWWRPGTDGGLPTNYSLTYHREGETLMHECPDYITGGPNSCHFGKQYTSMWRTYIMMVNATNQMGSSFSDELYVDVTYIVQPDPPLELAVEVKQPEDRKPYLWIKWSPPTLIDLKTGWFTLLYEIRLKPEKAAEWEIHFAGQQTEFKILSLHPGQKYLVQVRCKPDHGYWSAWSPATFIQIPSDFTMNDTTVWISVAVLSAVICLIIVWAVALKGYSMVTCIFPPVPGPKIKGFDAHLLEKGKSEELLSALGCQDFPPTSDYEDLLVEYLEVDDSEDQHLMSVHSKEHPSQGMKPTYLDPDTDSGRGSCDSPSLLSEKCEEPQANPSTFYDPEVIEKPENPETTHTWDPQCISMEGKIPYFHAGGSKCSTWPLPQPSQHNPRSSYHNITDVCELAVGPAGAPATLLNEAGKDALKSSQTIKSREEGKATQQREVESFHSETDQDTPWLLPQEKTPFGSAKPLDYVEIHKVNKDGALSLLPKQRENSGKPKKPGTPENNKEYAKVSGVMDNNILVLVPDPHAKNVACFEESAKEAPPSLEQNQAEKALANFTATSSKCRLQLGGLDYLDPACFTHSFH


How the values were obtained:
[1] = test system: HEK293/mfPRLR; assay: FACS cell surface binding; set-up: species or system macaca fascicularis
HEK293/mfPRLR, sequence (as listed by the source): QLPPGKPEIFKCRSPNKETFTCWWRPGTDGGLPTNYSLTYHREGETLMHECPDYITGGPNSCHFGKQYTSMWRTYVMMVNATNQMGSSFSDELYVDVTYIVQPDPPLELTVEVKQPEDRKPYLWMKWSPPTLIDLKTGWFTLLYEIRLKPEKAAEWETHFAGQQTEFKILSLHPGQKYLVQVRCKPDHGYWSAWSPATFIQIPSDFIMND
Method: The ability of anti-PRLR antibodies to selectively bind PRLR expressing cell lines was next determined. Human, monkey macaca fascicularis, and mouse PRLR constructs with an HA tag were stably introduced into HEK293 cells via Lipofectamine 2000-mediated transfection methodology. Transfectants (HEK293/hPRLR, HEK293/mfPRLR and HEK293/mPRLR) were selected for at least 2 weeks in complete growth media plus G418.
Cell surface expression of PRLR on 293/hPRLR cells was assessed via FACS analysis. Briefly, 1×10^5 cells were incubated with 10 μg/ml of Control antibody I, or an isotype control for 30 min on ice in antibody dilution buffer. Following two washes with antibody dilution buffer, cells were incubated with 10 μg/ml of PE conjugated anti-human secondary antibodies for 30 min on ice. Following two additional washes, samples were run on a Hypercyt® cytometer and analyzed in FORECYT™ (IntelliCyt, Albuquerque, N. Mex.). The mean fluorescence intensities (MFI) were expressed as fold change above isotype control levels (background). FACS binding confirmed that Control I selectively bound to 293/hPRLR expressing cells with MFIs that were 30 fold above background (isotype ctrl) levels and less than 2 fold binding on parental cells.
Next, the anti-PRLR antibodies of the present invention were tested via FACS for selective binding to the engineered overexpressing PRLR HEK293 cell lines, as well as to non-expressing HEK293 cells and a native PRLR expressing cell line (T47D).

[2] = test system: HEK293/hPRLR/STAT5-Luc cells (human PRLR); assay: STAT5-Luc luciferase reporter assay, blocking of PRL-mediated receptor activation; assay type: cell-based; details: for IC50: 5 nM constant PRL, 6 hr at 37° C.; for Percent Blocking at 100 nM Antibody: 5 nM PRL
Description: The ability of anti-PRLR antibodies to block prolactin (PRL)-mediated receptor activation was examined in a luciferase-based reporter assay. The endocrine hormone PRL binds to the extracellular domain of its cognate receptor PRLR, triggering rapid homodimerization and activating several downstream signaling cascades.
In this example, an engineered cell line was used to determine the ability of anti-PRLR antibodies to block ligand activation of the PRLR receptor. Briefly, HEK293/hPRLR/STAT5-Luc cell lines with stable incorporation of a human PRLR expression cassette and the STAT5-dependent luciferase reporter were generated via sequential rounds of Lipofectamine® 2000-mediated transfection (LifeTechnologies, Carlsbad, Calif.). Cells were selected for at least two weeks in the presence of 500 μg/mL G418 (hPRLR) and 100 μg/mL hygromycin B (STAT5-Luc). The STAT5-Luc assay utilized 2×10^5 HEK293/hPRLR/STAT5-Luc cells seeded in complete growth medium on PDL-coated 96 well plates grown overnight at 37° C., 5% CO2. To generate antibody inhibition curves, cells were incubated (6 hr at 37° C.) with serially diluted anti-human PRLR antibodies (100 nM to 24 pM) in the presence of 5 nM constant PRL before recording signal. PRL dose response curves were generated by the addition of serially diluted PRL (100 nM to 24 pM) to cells and recording signal after a 6 hr (37° C.) incubation in the absence of antibodies. The ability of the antibodies to activate PRLR in the absence of ligand was also assessed.
Luciferase activity was measured with ONE-GLO™ reagent (Promega, Madison, Wis.). Relative light units (RLUs) were measured on a Victor luminometer (Perkin Elmer, Shelton, Conn.). EC50/IC50 values were determined from a four-parameter logistic equation over an 8-point response curve using GraphPad Prism. Percent blocking and percent activation are reported for the highest antibody dose.

[3] = molecular target: T1, PRLR-expressing cells (T47D); assay: Antibody binding and internalization by PRLR-expressing cells (imaging); assay type: cell-based; details: [mAb] (0.67 nM); for % Internalization relative to Control I: alexa488 intensity in intracellular vesicles, 1 h at 37° C.; for % Total Binding relative to Control I: whole cell alexa488 intensity at 37° C.
Method: In this Example, the internalization of anti-PRLR antibodies by PRLR-expressing cells (T47D) was assessed. Briefly, 20,000 T47D cells were seeded in collagen coated 96 well plates. […] Cells were then incubated with alexa488 conjugated anti-hFc Fab secondary antibodies for 30 minutes on ice followed by two additional PBS washes. Antibodies were allowed to internalize for 1 h at 37° C. in internalization buffer (PBS+2% FBS) or remained at 4° C. Cells were fixed in 4% formaldehyde, nuclei were stained with DRAQ5 (Cell signaling), and images were acquired on the ImageXpress micro XL (Molecular Devices). Whole cell alexa488 intensity at 37° C. (Binding) and the alexa488 intensity in the intracellular vesicles at 37° C. (Internalization) were determined via Columbus image analysis software (PerkinElmer).

Molecule | FACS Cell Binding (Fold Above Background) [1] [Fold Above Background] | IC50 [2] [nM] | Percent Blocking at 100 nM Antibody [2] [%] | % Internalization relative to Control I [3] [%] | % Total Binding relative to Control I [3] [%]
H1H6782P: anti-PRLR antibody, human IgG1 Fc; HCVR/LCVR SEQ ID NOs 66/74; non-blocking (antibody, V domains shown, human IgG1 Fc) VH: EVQLVESGGGLVQPGRSLRLSCAASGFTFDDYAMHWVRQAPGKGLEWVSGIIWNSGHIGYGDSVKGRFTISRDNAKKSLYLQMNSLRAEDTALYYCARDSGRYQSYFDYWGQGTLVTVSS VL: DIQMTQSPSTLSASVGDRVTITCRASHIISSWLAWYQQKPGKAPKVLIFKASSLESGVPSRFSGSGSGTEFTLTISSLQPDDFATYYCQQYNTYSRTFGQGTKVEIK | 32 | > 100 | 0 | 179.3 | 209.9
H1H6792P: anti-PRLR antibody, human IgG1 Fc; HCVR/LCVR SEQ ID NOs 130/138 (antibody, V domains shown, human IgG1 Fc) VH: EVQLVESGGGLVQPGRSLRLSCAASGFTLDDHAVHWVRQAPGKGLEWVSGISWNSVYIDYADSVKGRFTIFRDNAKNSLYLQMNSLRAEDTAFYYCARDIEGARDYWGQGTLVTVSS VL: DIQMTQSPSSLSASVGDRVTITCRASQGIRNDLGWYQQKPGKAPKRLIYAASSLQSGVPSRFSGSGYGTEFTLTISSLQPEDFAPYYCLQHNSYPLTFGGGTKVEIK | 28 | 0.57 | 100 | 155.9 | 110.6
H1H6781P: anti-PRLR antibody, human IgG1 Fc; HCVR/LCVR SEQ ID NOs 50/58 (antibody, V domains shown, human IgG1 Fc) VH: EVQLVESGGDLVQPGESLRLSCTASGFTFNSYEMNWVRQAPGKGLEWVSYISSSGGTKYYVDSVKGRFTISRDNAKKSLYLQMNSLRADDTALYYCARLNGVDVFDIWGQGTMVTVSS VL: DIQMTQSPSSLSASVGDRVTITCRASQDIFNYLAWFQQKPGKVPELLISAASTLQSGVPSRFSGSGSGTYFTLTISSLQPEDIATYYCQRYNSAPLTFGGGTKVEIK | 26 | 0.027 | 100 | 165.1 | 166.2
H1H6785P: anti-PRLR antibody, human IgG1 Fc; HCVR/LCVR SEQ ID NOs 98/106 (antibody, V domains shown, human IgG1 Fc) VH: EVQLVESGGGLVQPGGSLRLSCAASGFTFSSYEMNWVRQAPGKGLEWISYISSRGGTIYYADSIKGRFTIYRDNARNSLYLQMNSLRAEDTAIYYCARLSGVDIFDIWGQGTMVTVSS VL: DIQMTQSPSSLSASVGDRVTITCRASQGISNYLAWYQQKPGKVPKLLIYFASTLQSGVPSRFSGGGSGTDFTLTISSLQPEDVATYYCQRYNSAPLTFGGGTKVEIK | 26 | 0.345 | 100 | 169.1 | 168.0
H1H6765P: anti-PRLR antibody, human IgG1 Fc; HCVR/LCVR SEQ ID NOs 18/26 (antibody, V domains shown, human IgG1 Fc) VH: EVQLVESGGGVVRPGGSLRLSCVGSGFSFDDHGMNWVRQGPGKGLEWVSGFNWNGGSTNYAESVKGRFTISRDNARNSLFLQMNSLRAEDTALYYCVRGRSGWFNDAFDVWGPGTMVTVSS VL: EIVLTQSPGTLSLSPGERATLSCRASQTINSNYLAWYRQKPGQTPRLLIYGTSSRATGIPDRFSGSGSGTDFSLTISRLEPEDFAVFYCQQYAGLPTFGPGTKVDIK | 27 | 0.033 | 100 | 186.3 | 191.3
H1H6774P: anti-PRLR antibody, human IgG1 Fc; HCVR/LCVR SEQ ID NOs 34/42 (antibody, V domains shown, human IgG1 Fc) VH: EVQLVESGGGLAQPGGSLRLSCVASGFTFSTYWMSWVRQAPGKGLDWVGNIKQDGSEQNYVDSVRGRFTISRDNAKNSLFLQMNSLRAEDTGVYYCATLLTKGDYWGQGTLVTVSS VL: DIQMTQSPSSLSASVGDSVTITCRASQDISNYLDWFQQKPGKAPKSLIYAASILQGGVPSRFSGSGYGTDFTLTISSLQPEDFATYYCRQYKTYPFTFGPGTKVDIK | 29 |  | 0 | 162.3 | 173.7
H1H6793P: anti-PRLR antibody, human IgG1 Fc; HCVR/LCVR SEQ ID NOs 146/154 (antibody, V domains shown, human IgG1 Fc) VH: EVQLVESGGGLVQPGGSLRLSCAASGFSFSIYAMSWFRQAPGKGLEWVSAINGRGDGTHYADSVKGRFTISRDNSKTTLYLQMSSLRAEDTAVYYCAKPVMSTNGFDIWGQGTMVTVSS VL: DIQMTQSPSTLSASVGDRVTITCRASQSISSWLAWYQLKPGKAPKLLIYKASNLESGVPSRFSGSGSGTEFTLTISSLQPDDFATYYCQQYNIYWTFGQGTKVEIK | 32 |  | 65 | 179.9 | 177.9
H1H6790P: anti-PRLR antibody, human IgG1 Fc; HCVR/LCVR SEQ ID NOs 114/122 (antibody, V domains shown, human IgG1 Fc) VH: EVQLVESGGGLVQPGGSLRLSCAASGFTFSSYAMTWVRQAPGKGLEWVSAITGSVGNTYYADSVKGRFTISRDNSKNTLYLQMNSLGAEDTAEYYCAKGAGMTTNWYLDLWGRGTLVTVSS VL: DIVMTQSPDSLAVSLGARATINCKSSQSVLYSSNNQNYLTWYQQKPGQPPKLLIKWASTRESGVPDRFSGSGSGTDFTLTISSLQAEDVAVYYCQQYASSPYTFGQGTKLEIK | 24 | 0.206 | 100 | 146.9 | 122.8

Reference: patent US9688764B2, “Methods of treating breast cancer by administering anti-human prolactin receptor (PRLR) antibodies” (REGENERON PHARMACEUTICALS, INC., priority 2013, dated 2017)
